Experimental data from patent US20060242739A1, “Plant nucleotide-sugar pyrophosphatase/phosphodiesterase (nppase), method of obtaining same and use of same in the production of assay devices and in the production of transgenic plants” (Universidad Publica De Navarra, priority 2002, published 2006).
Blank lines part the entries; values can stand above or below the molecule they belong to.

Legend:
[1] = slightly basic pH
[2] = target: T1, NPPase from barley leaves (Hordeum vulgare, UniProt Q687E1); test: Enzymatic test of soluble NPPase from barley leaves: kinetic parameters, substrate specificity, effectors; conditions: qualitative
T1 sequence (Q687E1 19-368): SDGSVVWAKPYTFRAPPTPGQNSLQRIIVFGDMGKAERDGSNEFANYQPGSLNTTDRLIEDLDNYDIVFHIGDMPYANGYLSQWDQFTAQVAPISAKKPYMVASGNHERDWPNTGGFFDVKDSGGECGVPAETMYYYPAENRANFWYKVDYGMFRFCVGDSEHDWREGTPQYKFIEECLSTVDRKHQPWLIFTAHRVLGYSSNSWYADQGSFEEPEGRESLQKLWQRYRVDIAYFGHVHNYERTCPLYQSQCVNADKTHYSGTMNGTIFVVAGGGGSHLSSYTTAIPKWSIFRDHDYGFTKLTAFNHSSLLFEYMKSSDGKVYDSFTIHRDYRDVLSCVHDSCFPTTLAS

B1: NPPase: plant nucleotide pyrophosphatase/phosphodiesterase, soluble 70-kDa isoform purified from barley leaves (protein)
chain: MVSRKRGGGGGVAMAVAMLLAAASASRPSSSLEGFQPLSKIAVHKATVDLHGSAFVSATPALLGDQGEDTEWVTVKYGWANPSADDWIAVFSPADFISGSCPNPSRYPDEPLLCTAPIKYQFANYSANYVYWGKGSIRFQLINQRYDFSFALFTGGLENPKLVAVSEAISFKNPKAPVYPRLAQGKSYDEMTVTWTSGYDISEAYPFVEWGMVVAGAAAPTRTAAGTLTFNRGSMCGDPDRTVGWRDPGFIHTAFLRDLWPNKEYYYKIGHELSDGSIVWGKQYTFRAPPFPGQNSLQRIIVFGDMGKAERDGSNEFANYQPGSLNTTDRLVEDLDNYDIVFHIGDLPYANGYISQWDQFTAQVAPITAKKPYMIASGNHERDWPNTGGFFDVKDSGGECGVPAETMYYYPAENRANFWYKVDYGMFRFCIADSEHDWREGTDQYKFIEQCLSTVDRKHQPWLIFAAHRVLGYSSNWWYADQQSFEEPEGRESLQRLWQRHRVDVAFFGHVHNYERTCPMYQSQCVSGERRRYSGTMNGTIFVVAGGGGSHLSDYTSAIPKWSVFRDRDFGFVKLTAFNHSSLLFEYKKSSDGKVYDSFTVERDYRDVLSCVHDSCLPTTLAS
pH sensitivity [1]: sensitive

resistance of NPPase to ionic detergents and proteases [2]: resistant
B2: Proteinase K: protease (Boehringer) (protein, UniProt P06873 106-384, looked up)
Proteinase K: AAQTNAPWGLARISSTSPGTSTYYYDESAGQGSCVYVIDTGIEASHPEFEGRAQMVKTYYYSSRDGNGHGTHCAGTVGSRTYGVAKKTQLFGVKVLDDNGSGQYSTIIAGMDFVASDKNNRNCPKGVVASLSLGGGYSSSVNSAAARLQSSGVMVAVAAGNNNADARNYSPASEPSVCTVGASDRYDRRSSFSNYGSVLDIFGPGTSILSTWIGGSTRSISGTSMATPHVAGLAAYLMTLGKTTAASACRYIADTANKGDLSNIPFGTVNLLAYNNYQA
